Measurements taken from patent publication US20250145711A1 (Janssen / Centocor, published 2025).

T1: Human CD79b, endogenous on diffuse large B-cell lymphoma cell lines (human, UniProt P40259 29-229)
T1 construct: On HBL-1, OCI-LY10 and Carnaval cells, which also carry CD20; also called Igβ
T1 sequence: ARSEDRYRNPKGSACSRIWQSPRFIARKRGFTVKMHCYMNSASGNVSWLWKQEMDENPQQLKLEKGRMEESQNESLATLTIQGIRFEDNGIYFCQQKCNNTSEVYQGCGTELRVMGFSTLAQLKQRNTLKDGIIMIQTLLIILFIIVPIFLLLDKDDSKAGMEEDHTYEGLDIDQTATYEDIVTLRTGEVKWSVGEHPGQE

T2: Human CD79b long isoform, recombinant extracellular domain (CD9W8.001) (human, UniProt P40259 29-159)
T2 construct: extracellular domain; also called hu CD79b long
T2 sequence (looked up): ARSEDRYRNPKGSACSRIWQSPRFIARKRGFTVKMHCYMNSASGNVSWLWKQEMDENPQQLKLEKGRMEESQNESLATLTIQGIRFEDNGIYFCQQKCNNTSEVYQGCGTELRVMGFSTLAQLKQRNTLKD

T3: Human CD79b short isoform, recombinant extracellular domain (CD9W7.001) (human, UniProt P40259 29-159)
T3 chain: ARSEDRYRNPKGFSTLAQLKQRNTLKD

B1: CD3B1127 (scFv)
scFv: QVQLQQSGAELARPGASVKMSCKASGYTFTRSTMHWVKQRPGQGLEWIGYINPSSAYTNYNQKFKDKATLTADKSSSTAYMQLSSLTSEDSAVYYCASPQVHYDYNGFPYWGQGTLVTVSAGGSEGKSSGSGSESKSTGGSQVVLTQSPAIMSAFPGEKVTMTCSASSSVSYMNWYQQKSGTSPKRWIYDSSKLASGVPARFSGSGSGTSYSLTISSMETEDAATYYCQQWSRNPPTFGGGTKLQIT
notes: also called Murine HL; murine Cris-7 scFv (HL)
B2: CD3B1136 (scFv)
scFv, VL-linker-VH (LH): EIVLTQSPATLSLSPGERATLSCSASSSVSYMNWYQQKPGTSPRRLIYDSSKLASGIPARFSGSGSGRDYTLTISSLEPEDFAVYYCQQWSRNPPTFGGGTKVEIKGGSEGKSSGSGSESKSTGGSEVQLVQSGAEVKKPGESLRISCKASGYTFTRSTMHWVRQMPGKGLEWMGYINPSSAYTNYNPSFQGHVTLSADKSISTAYLQWSSLKASDTAMYYCARPQVHYDYNGFPYWGQGTLVTVSS
B3: PSMB1069 (bispecific antibody, human IgG1, kappa, L234A L235A)
heavy: not shown
light: not shown
chain: QVQLVESGGGEVQPGRSLRLSCAASGFSFSGYGMHWVRQAPGKGLEWVAVMSYDGSNRFYVDSVRGRFSISRDNSKNTLYLQMNSLRPEDTAVYYCARDTVWGSHPDAFDIWGQGTVVTVSSGGSEGKSSGSGSESKSTGGSQSVLTQPPSVSVAPGQTARITCGGNNSGSKSVHWYQQKPGQAPVLVVYDDSDRPSGIPERFSGSNSGNTATLTISRVEAGDEADYYCQVWDSSSDHGVFGGGTKLTVLEPKSSDKTHTCPPCPAPEAAGGPSVFLFPPKPKDTLMISRTPEVTCVVVSVSHEDPEVKFNWYVDGVEVHNAKTKPREEQYNSTYRVVSVLTVLHQDWLNGKEYKCKVSNKALPAPIEKTISKAKGQPREPQVYVLPPSREEMTKNQVSLLCLVKGFYPSDIAVEWESNGQPENNYLTWPPVLDSDGSFFLYSKLTVDKSRWQQGNVFSCSVMHEALHNHYTQKSLSLSPG
notes: HC1/LC1 null arm; HC2 is the anti-PSMA scFv-Fc
B4: 79C3B646 (bispecific antibody, human IgG1, lambda, L234A L235A)
heavy: QVQLQQSGPGLVKPSQTLSLTCAISGDSVSSNSATWNWIRQSPSRGLEWLGRTYYRSKWYNDYTVSVKSRITINPDTSKNQFSLQLNSVTPEDTAVYYCTRVDIAFDYWGQGTLVTVSSASTKGPSVFPLAPSSKSTSGGTAALGCLVKDYFPEPVTVSWNSGALTSGVHTFPAVLQSSGLYSLSSVVTVPSSSLGTQTYICNVNHKPSNTKVDKKVEPKSCDKTHTCPPCPAPEAAGGPSVFLFPPKPKDTLMISRTPEVTCVVVSVSHEDPEVKFNWYVDGVEVHNAKTKPREEQYNSTYRVVSVLTVLHQDWLNGKEYKCKVSNKALPAPIEKTISKAKGQPREPQVYTLPPSREEMTKNQVSLSCAVKGFYPSDIAVEWESNGQPENNYKTTPPVLDSDGSFFLVSKLTVDKSRWQQGNVFSCSVMHEALHNRFTQKSLSLSPGK
light: QTVVTQPPSVSEAPRQRVTISCSGSSSNIGNHGVNWYQQLPGKAPKLLIYNDDLLPSGVSDRFSGSTSGTSGSLAISGLQSEDEADYYCAAWDDSLNGVVFGGGTKLTVLGQPKAAPSVTLFPPSSEELQANKATLVCLISDFYPGAVTVAWKADSSPVKAGVETTTPSKQSNNKYAASSYLSLTPEQWKSHRSYSCQVTHEGSTVEKTVAPTECS
chain: EIVLTQSPATLSASPGERVTLSCSASSSVSYMNWYQQKPGQAPRRWIYDSSKLASGVPARFSGSGSGRDYTLTISSLEPEDFAVYYCQQWSRNPPTFGGGTKVEIKGGSEGKSSGSGSESKSTGGSQVQLVQSGAEVKKPGSSVKVSCKASGYTFTRSTMHWVKQAPGQGLEWIGYINPSSAYTNYNQKFQGRVTLTADKSTSTAYMELSSLRSEDTAVYYCASPQVHYDYAGFPYWGQGTLVTVSSEPKSSDKTHTCPPCPAPEAAGGPSVFLFPPKPKDTLMISRTPEVTCVVVSVSHEDPEVKFNWYVDGVEVHNAKTKPREEQYNSTYRVVSVLTVLHQDWLNGKEYKCKVSNKALPAPIEKTISKAKGQPREPQVYTLPPSREEMTKNQVSLWCLVKGFYPSDIAVEWESNGQPENNYKTTPPVLDSDGSFFLYSKLTVDKSRWQQGNVFSCSVMHEALHNHYTQKSLSLSPGK
notes: IgG1; HC1/LC form the CD79b Fab arm; HC2 is the CD3 scFv-Fc arm; Knobs-in-holes; also called CD79bxCD3 bsAb; CD9B330-N31S x CD3B2030-N106A
B5: 79C3B651 (bispecific antibody, human IgG1, kappa, L234A L235A)
heavy: QVQLQESGPGLVKPSQTLSLTCTVSGVSISNYYWSWIRQPPGKGLEWIGRISPSGRTNYNPSLKSRVTMSLDASKNQFSLKLSSVTAADTAVYYCARGEYSGTYSYSFDIWGQGTMVTVSSASTKGPSVFPLAPSSKSTSGGTAALGCLVKDYFPEPVTVSWNSGALTSGVHTFPAVLQSSGLYSLSSVVTVPSSSLGTQTYICNVNHKPSNTKVDKKVEPKSCDKTHTCPPCPAPEAAGGPSVFLFPPKPKDTLMISRTPEVTCVVVSVSHEDPEVKFNWYVDGVEVHNAKTKPREEQYNSTYRVVSVLTVLHQDWLNGKEYKCKVSNKALPAPIEKTISKAKGQPREPQVYTLPPSREEMTKNQVSLSCAVKGFYPSDIAVEWESNGQPENNYKTTPPVLDSDGSFFLVSKLTVDKSRWQQGNVFSCSVMHEALHNRFTQKSLSLSPGK
light: DIQMTQSPSSLSASVGDRVTITCRSSQSLFDSDDGNTYLDWFQQKPGQSPKLLIQTLSYRASGVPSRFSGSGSGTDFTLTISSLQPEDFATYYCMQRMEFPLTFGGGTKVEIKRTVAAPSVFIFPPSDEQLKSGTASVVCLLNNFYPREAKVQWKVDNALQSGNSQESVTEQDSKDSTYSLSSTLTLSKADYEKHKVYACEVTHQGLSSPVTKSFNRGEC
chain: B4 chain
notes: IgG1; HC1/LC form the CD79b Fab arm; HC2 is the CD3 scFv-Fc arm; Knobs-in-holes; also called CD79bxCD3 bsAb; CD9B643 x CD3B2030-N106A

Tests used:
[1] = biological target: T4, TRCW5 antigen (CD3δε-Fc-Avi) (biotinylated (site not stated)); test: ELISA: biotinylated TRCW5 on streptavidin plates at the [CD3] of the x axis, E. coli scFv supernatant, anti-HA-HRP, luminescence
T4 construct: also called recombinant CD3
Protocol: (§1) Briefly, DNA was transformed into an E. coli expression vector to generate scFv molecules having a C-terminal HA-tag, and cells were plated on 2×YT/Carb/2% Glucose grown overnight at 37 C. Colonies were picked and transferred 50 ul of overnight growth cultures to new plates containing 500 ul of 2×YT/Carb/0.1% Glucose, grown for 6-7 hr, and combined with 50 ul 2×YT medium containing 1×carbenicillin & 12×IPTG. Cultures were incubated with shaking ˜600 RPM 30° C. overnight. Streptavidin coated plates were bound with 50 μL of biotinylated TRCW5 antigen (CD3δε-Fc-Avi, SEQ ID NO: 39) at the concentrations indicated in the ELISA graph for 45 min at room temperature with shaking (FIG. 1, FIG. 3, FIG. 4) followed by washing 3× with 1×TBST. Plates were blocked with 200 ul 3% Milk in 1×TBST for ˜45 mins at room temperature followed by washing 3× with 1×TBST. E. coli cultures were harvested by centrifugation at […] for 10 mins 4° C. and 50 μL of supernatant was transferred into CD3-coated plates followed by incubation at 4 C for 45 min. Plates were washed 3× with 1×TBST. Bound scFv was detected with Chicken Polyclonal Anti-HA-HRP (ab1190) [1:1000] for ˜45 mins RT and luminescence detected with chemi-luminescent substrate.

[2] = biological target: T4, TRCW5 antigen (CD3δε-Fc-Avi); test: ELISA after heat
[3] = biological target: T4, TRCW5 antigen (CD3δε-Fc-Avi); test: ELISA, E. coli scFv on biotinylated TRCW5
Protocol: as §1

[4] = biological target: T4, TRCW5 antigen (CD3δε-Fc-Avi); test: ELISA: biotinylated TRCW5 on streptavidin plates at the antigen concentration of the x axis, E. coli scFv supernatant, anti-HA-HRP, luminescence
Protocol: as §1

[5] = biological target: PSMA on C4-2B human prostate tumor cells (human, UniProt Q04609 1-750); test: flow cytometry, C4-2B cells
Protocol: Molecule concentrations ranged from 500-0 nM over 12-points at 3-fold dilution. […] Values reported in the Table 69 were generated by fitting the data to a four-parameter function for ligand binding generating values for y-min, y-max, EC50, and Hill. EC90 were calculated using the equation EC90=[…]\hat{ }(1/Hill)*EC50.

[6] = biological target: T1, Human CD79b, endogenous on diffuse …; test: flow cytometry on HBL-1 cells (endogenous CD79b), 1 h 37 C, anti-human IgG AF647
Protocol: (§2) All cells were washed with BD stain buffer (BD Biosciences; Cat #554657), centrifuged at 1200 RPM for 3 minutes, with supernatant discarded. […] All cells were washed with BD stain buffer (BD Biosciences; Cat #554657), centrifuged at 1200 RPM for 3 mins, with supernatant discarded. Cells were analyzed using Intellicyt (Sartorius) flow cytometer and mean fluorescent intensity (MFI) was generated using Forcyt software (Sartorius). MFI was graphed and EC50 values generated using GraphPad PRISM v.8. Dose response curves were generated by transforming the x axis values using the formula […]. Data was then graphed using non-linear regression curve fit analysis “log(agonist) vs. response-variable slope (four parameter)”.

[7] = biological target: T1, Human CD79b, endogenous on diffuse …; test: flow cytometry on HBL-1 cells; bispecific control in the trispecific table
Protocol: as §2

[8] = biological target: T1, Human CD79b, endogenous on diffuse …; test: flow cytometry on Carnaval cells; bispecific control in the trispecific table
Protocol: as §2

[9] = biological target: T1, Human CD79b, endogenous on diffuse …; test: flow cytometry on Carnaval cells (endogenous CD79b), 1 h 37 C, anti-human IgG AF647
Protocol: as §2

[10] = biological target: T2, Human CD79b long isoform, recombinant …; test: SPR Biacore 8K, antibody captured by anti-human Fc, CD79b in solution, 25 C, 1:1 Langmuir
Protocol: (§3) General Protocol for SPR Affinity Assessment: Affinity assessment of the bispecific and trispecific constructs against human CD79b were measured using recombinantly expressed extracellular domain of CD79b short and long isoforms (CD9W7.001 and CD9W8.001, respectively) by Surface Plasmon Resonance (SPR) using a Biacore 8 k SPR system (Biacore) at 25° C. in HBSP+ buffer. Cross-reactivity of the same antibody panel was also assessed against cyno and mouse antigens (CD9W1.001 and CD9W105.001, respectively). Briefly, a C1 sensor chip was immobilized with anti-human Fc (target immobilization levels of >400 RU) using vendor recommended amino coupling protocol. The test antibodies were captured through immobilized anti-Fc and was followed by the injection of different CD79b constructs at different concentration series (human CD79b short and long isoforms: 30 nM-0.37 nM at 3-fold dilutions; cyno and mouse CD79b: 3000 nM-37 nM at 3-fold dilutions). The association and dissociation phases were measured for 2 or 3 minutes and 30 minutes, respectively.
(§4) The raw binding sensorgrams were processed using Biacore Insight software (Biacore) by double-referencing and the processed sensorgrams were analyzed for cross-reactivity and fitted to a 1:1 Langmuir model to obtain on-rates, off-rates and affinities.

[11] = biological target: T3, Human CD79b short isoform, recombinant …; test: as above
Protocol: as §3, §4

T4 sequence (chain, as listed by the source mutant limits assumed): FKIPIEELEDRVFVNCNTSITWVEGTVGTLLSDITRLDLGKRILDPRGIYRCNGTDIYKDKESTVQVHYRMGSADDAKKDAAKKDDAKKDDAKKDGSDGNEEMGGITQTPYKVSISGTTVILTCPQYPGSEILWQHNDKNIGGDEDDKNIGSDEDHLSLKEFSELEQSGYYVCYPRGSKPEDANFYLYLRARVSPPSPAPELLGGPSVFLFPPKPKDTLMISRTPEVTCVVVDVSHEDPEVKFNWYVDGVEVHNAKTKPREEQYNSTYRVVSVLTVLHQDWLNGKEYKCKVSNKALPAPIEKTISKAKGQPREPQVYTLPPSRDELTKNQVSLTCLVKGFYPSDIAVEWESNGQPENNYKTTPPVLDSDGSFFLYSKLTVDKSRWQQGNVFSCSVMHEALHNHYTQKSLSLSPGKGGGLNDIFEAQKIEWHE
Sequence of PSMA on C4-2B human prostate tumor cells (Q04609 whole entry): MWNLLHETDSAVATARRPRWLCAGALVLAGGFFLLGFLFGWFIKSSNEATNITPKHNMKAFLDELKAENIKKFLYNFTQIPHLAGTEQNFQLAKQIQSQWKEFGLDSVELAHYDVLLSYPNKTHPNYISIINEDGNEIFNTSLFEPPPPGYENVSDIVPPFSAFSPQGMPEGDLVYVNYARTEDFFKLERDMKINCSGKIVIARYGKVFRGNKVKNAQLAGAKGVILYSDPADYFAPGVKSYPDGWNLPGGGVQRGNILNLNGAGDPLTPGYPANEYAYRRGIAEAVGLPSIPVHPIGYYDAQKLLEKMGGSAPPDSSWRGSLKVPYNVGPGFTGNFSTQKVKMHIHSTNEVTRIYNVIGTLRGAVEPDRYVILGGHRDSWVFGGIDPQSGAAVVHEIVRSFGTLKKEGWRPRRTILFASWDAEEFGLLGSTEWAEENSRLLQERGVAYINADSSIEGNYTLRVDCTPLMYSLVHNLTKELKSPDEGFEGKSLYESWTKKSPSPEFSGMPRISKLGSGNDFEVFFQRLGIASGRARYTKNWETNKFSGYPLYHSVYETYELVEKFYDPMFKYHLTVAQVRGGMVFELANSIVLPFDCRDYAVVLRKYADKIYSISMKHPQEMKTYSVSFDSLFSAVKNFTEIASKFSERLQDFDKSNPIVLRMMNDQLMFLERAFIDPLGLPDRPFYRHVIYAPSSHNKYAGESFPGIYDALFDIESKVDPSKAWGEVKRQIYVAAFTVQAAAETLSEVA

| Binder | EC50 [6] | EC50 [7] | EC50 [8] | EC50 [9] | Kd [10] | Kd [11] | also measured |
| --- | --- | --- | --- | --- | --- | --- | --- |
| B1 |  |  |  |  |  |  | EC50 (read off the curve) [1]: ~0.4 nM; % Retained 55° C. [2]: 19%; % Retained 60° C. [2]: 0%; % Retained 65° C. [2]: 1%; EC50 [3]: ~0.397 nM |
| B2 |  |  |  |  |  |  | binding result [4]: no binding (tested: 10 ug/ml (antigen)) |
| B3 |  |  |  |  |  |  | fold binding signal (Y-max) over the average [5]: 2 fold |
| B4 | 97 nM | 97 nM | 44 nM | 44 nM | 0.022 nM | 0.58 nM |  |
| B5 | 15 nM | 15 nM | 12 nM | 12 nM | 0.052 nM | 0.35 nM |  |
